In the RNAGym collection of RNA variant scans (doi:10.7554/elife.80360):

B1: CPEB3 Ribozyme (parent)
chain: GGGGGCCACAGCAGAAGCGUUCACGUCGCGGCCCCUGUCAGAUUCUGGUGAAUCUGCGAAUUCUGCUGU

Variants of: B1
Assay: self-cleavage, relative activity (ratio to wild type); higher = more cleavage; co-transcriptional

Variant | self-cleavage
GGCGGCCACAGCAGAAGCGUUCACGUCGCGGCCGCUGUCAGAUUCUGGUGAAUCUGCGAAUUCUGCUGU [G3C C34G] | 0.783
GGCGGCCACAGCAGAAGCGUUCACAUCGCGGCCCCUGUCAGAUUCUGGUGAAUCUGCGAAUUCUGCUGU [G3C G25A] | 0.0214
GGCGGCCACAGCAGAAGCGUUCACUUCGCGGCCCCUGUCAGAUUCUGGUGAAUCUGCGAAUUCUGCUGU [G3C G25U] | 0.047
GGCGGCCACAGCAGAAGCGUUCACCUCGCGGCCCCUGUCAGAUUCUGGUGAAUCUGCGAAUUCUGCUGU [G3C G25C] | 0.0602
GGCGGCCACAGCAGAAGCGUUCACGUCGCGGCCCCUGUCAGAUUUUGGUGAAUCUGCGAAUUCUGCUGU [G3C C45U] | 0.121
GGCGGCCACAGCAGAAGCGUUCACGUCGCGGCCCCUGUCAGAUUAUGGUGAAUCUGCGAAUUCUGCUGU [G3C C45A] | 0.0668
GGCGGCCACAUCAGAAGCGUUCACGUCGCGGCCCCUGUCAGAUUCUGGUGAAUCUGCGAAUUCUGCUGU [G3C G11U] | 0.11
GGCGGCCACAACAGAAGCGUUCACGUCGCGGCCCCUGUCAGAUUCUGGUGAAUCUGCGAAUUCUGCUGU [G3C G11A] | 0.0327
GGCGGCCACACCAGAAGCGUUCACGUCGCGGCCCCUGUCAGAUUCUGGUGAAUCUGCGAAUUCUGCUGU [G3C G11C] | 0.0692
GGCGGCCACAGCAGAAGCGUUCACGUCGCGGACCCUGUCAGAUUCUGGUGAAUCUGCGAAUUCUGCUGU [G3C C32A] | 0.0311
GGCGUCCACAGCAGAAGCGUUCACGUCGCGGCCCCUGUCAGAUUCUGGUGAAUCUGCGAAUUCUGCUGU [G3C G5U] | 0.00743
GGCGACCACAGCAGAAGCGUUCACGUCGCGGCCCCUGUCAGAUUCUGGUGAAUCUGCGAAUUCUGCUGU [G3C G5A] | 0.0417
GGCGGGCACAGCAGAAGCGUUCACGUCGCGGCCCCUGUCAGAUUCUGGUGAAUCUGCGAAUUCUGCUGU [G3C C6G] | 0.0449
GGCGGUCACAGCAGAAGCGUUCACGUCGCGGCCCCUGUCAGAUUCUGGUGAAUCUGCGAAUUCUGCUGU [G3C C6U] | 0.0391
GGCGGCCACAGCAGAAGCGUUCACGUCGCGGCCCCUGUCAGAUUCUUGUGAAUCUGCGAAUUCUGCUGU [G3C G47U] | 0.0876
GGCGGCCACAGCAGAAGCGUUCACGUCGCGGCCCCUGUCAGAUUCUAGUGAAUCUGCGAAUUCUGCUGU [G3C G47A] | 0.264
GGCGGCCACAGCAGAAGCGUUCACGUCGCGGCCCCUGUCAGAUUCUCGUGAAUCUGCGAAUUCUGCUGU [G3C G47C] | 0.136
GGCGGCCACAGCAGAAGCGUUAACGUCGCGGCCCCUGUCAGAUUCUGGUGAAUCUGCGAAUUCUGCUGU [G3C C22A] | 0.0184
GGCGGCCACAGCAGAAGCGUUGACGUCGCGGCCCCUGUCAGAUUCUGGUGAAUCUGCGAAUUCUGCUGU [G3C C22G] | 0.0359
GGCGGCCACAGCAGAAGCGUUUACGUCGCGGCCCCUGUCAGAUUCUGGUGAAUCUGCGAAUUCUGCUGU [G3C C22U] | 0.0738
GGCGGCAACAGCAGAAGCGUUCACGUCGCGGCCCCUGUCAGAUUCUGGUGAAUCUGCGAAUUCUGCUGU [G3C C7A] | 0.026
GGCGGCGACAGCAGAAGCGUUCACGUCGCGGCCCCUGUCAGAUUCUGGUGAAUCUGCGAAUUCUGCUGU [G3C C7G] | 0.0644
GGCGGCUACAGCAGAAGCGUUCACGUCGCGGCCCCUGUCAGAUUCUGGUGAAUCUGCGAAUUCUGCUGU [G3C C7U] | 0.102
GGCGGCCACAGCAGAAGCGUUCACGUCGCGGCCCCUGUCAGAUUCUGGUGAAUCUGUGAAUUCUGCUGU [G3C C57U] | 0.015
GGCGGCCACAGCAGAAGCGUUCACGUCGCGGCCCCUGUCAGAUUCUGGUGAAUCUGAGAAUUCUGCUGU [G3C C57A] | 0.0768
GGCGGCCACAGCAGAAGCGUUCACGUCGCGGCCCCUGUCAGAUUCUGGUGAAUCUGGGAAUUCUGCUGU [G3C C57G] | 0.0873

Variant | self-cleavage
GGCGGCCACAGCAGAAGCGUUCACGUCGCGGCCCCUGUCAGAUUCUGGUGGAUCUGCGAAUUCUGCUGU [G3C A51G] | 0.0762
GGCGGCCACAGCAGAAGCGUUCACGUCGCGGCCCCUGUCAGAUUCUGGUGCAUCUGCGAAUUCUGCUGU [G3C A51C] | 0.0422
GGCGGCCACAGCAGAAGCGUUCACGUCGCAGCCCCUGUCAGAUUCUGGUGAAUCUGCGAAUUCUGCUGU [G3C G30A] | 0.0737
GGCGGCCACAGCAGAAGCGUUCACGUCGCCGCCCCUGUCAGAUUCUGGUGAAUCUGCGAAUUCUGCUGU [G3C G30C] | 0.0279
GGCGGCCACAGCAGAAGCGUUCACGUCGCGCCCCCUGUCAGAUUCUGGUGAAUCUGCGAAUUCUGCUGU [G3C G31C] | 0.0554
GGCGGCCACAGCAGAAGCGUUCACGUCGCGGCCCCUGUCAGAUUCUGGUGAAUCUGCGAGUUCUGCUGU [G3C A60G] | 0.0121
GGCGGCCACAGCAGAAGCGUUCACGUCGCGGCCCCUGUCAGAUUCUGGUGAAUCUGCGACUUCUGCUGU [G3C A60C] | 0.0624
GGCGGCCACAGCAGAAGCGUUCACGUCGCGGCCCUUGUCAGAUUCUGGUGAAUCUGCGAAUUCUGCUGU [G3C C35U] | 0.0352
GGCGGCCACAGCAGAAGCGUUCACGUCGCGGCCCCUCUCAGAUUCUGGUGAAUCUGCGAAUUCUGCUGU [G3C G37C] | 0.0266
GGCGGCCACAGCAGAAGCGUUCACGUCGCGGCCCCUUUCAGAUUCUGGUGAAUCUGCGAAUUCUGCUGU [G3C G37U] | 0.0466
GGCGGCCACAGCAGAAGCGUUCACGUCGCGGCCCCUAUCAGAUUCUGGUGAAUCUGCGAAUUCUGCUGU [G3C G37A] | 0.0325
GGCGGCCACAGCAGAAGCGUUCAUGUCGCGGCCCCUGUCAGAUUCUGGUGAAUCUGCGAAUUCUGCUGU [G3C C24U] | 0.0425
GGCGGCCACAGCAGAAGCGUUCAGGUCGCGGCCCCUGUCAGAUUCUGGUGAAUCUGCGAAUUCUGCUGU [G3C C24G] | 0.0519
GGCGGCCACAGCAGAAGCGUUCACGUCGCGGCCCCUGUCAGUUUCUGGUGAAUCUGCGAAUUCUGCUGU [G3C A42U] | 0.0888
GGCGGCCACAGCACAAGCGUUCACGUCGCGGCCCCUGUCAGAUUCUGGUGAAUCUGCGAAUUCUGCUGU [G3C G14C] | 0.0467
GGCGGCCACAGCAUAAGCGUUCACGUCGCGGCCCCUGUCAGAUUCUGGUGAAUCUGCGAAUUCUGCUGU [G3C G14U] | 0.0909
GGCGGCCACAGCAAAAGCGUUCACGUCGCGGCCCCUGUCAGAUUCUGGUGAAUCUGCGAAUUCUGCUGU [G3C G14A] | 0.0364
GGCGGCCACAGCAGAAGCGUUCACGUCGCGGCCCCUGUCAGAUUCUGGUGAAUCUGCGAAUUCUGGUGU [G3C C66G] | 0.0391
GGCGGCCACAGCAGAAGCGUUCACGUCGCGGCCCCUGUCAGAUUCUGGUGAAUCUGCGAAUUCUGAUGU [G3C C66A] | 0.0406
GGCGGCCACAGCAGAAUCGUUCACGUCGCGGCCCCUGUCAGAUUCUGGUGAAUCUGCGAAUUCUGCUGU [G3C G17U] | 0.0348
GGCGGCCACAGCAGAAACGUUCACGUCGCGGCCCCUGUCAGAUUCUGGUGAAUCUGCGAAUUCUGCUGU [G3C G17A] | 0.0395
GGCGGCCACAGCAGAACCGUUCACGUCGCGGCCCCUGUCAGAUUCUGGUGAAUCUGCGAAUUCUGCUGU [G3C G17C] | 0.0303
GGCGGCCACAGCAGAAGCGUUCACGUCGCGGCCCCUGUCAGAUUCUGGUGAAUCUGCGAAUUAUGCUGU [G3C C63A] | 0.0751
GGCGGCCACAGCAGAAGCAUUCACGUCGCGGCCCCUGUCAGAUUCUGGUGAAUCUGCGAAUUCUGCUGU [G3C G19A] | 0.0368
GGCGGCCACAGCAGAAGCCUUCACGUCGCGGCCCCUGUCAGAUUCUGGUGAAUCUGCGAAUUCUGCUGU [G3C G19C] | 0.0344
GGCGGCCACAGCAGAAGCGUUCACGUCGGGGCCCCUGUCAGAUUCUGGUGAAUCUGCGAAUUCUGCUGU [G3C C29G] | 0.0545

Variant | self-cleavage
GGCGGCCACAGCAGAAGCGUUCACGUUGCGGCCCCUGUCAGAUUCUGGUGAAUCUGCGAAUUCUGCUGU [G3C C27U] | 0.0443
GGCGGCCACAGCAGAAGCGUUCACGUGGCGGCCCCUGUCAGAUUCUGGUGAAUCUGCGAAUUCUGCUGU [G3C C27G] | 0.06
GGCGGCCACAGCAGAAGCGUUCACGUCGCGGCCCCUGUCAGAUUCUGGUGAAUGUGCGAAUUCUGCUGU [G3C C54G] | 0.0518
GGCGGCCACAGCAGAAGCGUUCACGUCGCGGCCCCUGUCAGAUUCUGGUGAAUCUGCGGAUUCUGCUGU [G3C A59G] | 0.0736
GGCGGCCACAGCAGAAGCGUUCACGUCGCGGCCCCUGUCAGAUUCUGGUGAAUCUGCGCAUUCUGCUGU [G3C A59C] | 0.0244
GGCGGCCACAGCAGAAGCGUUCACGUCGCGGCCCCUGUGAGAUUCUGGUGAAUCUGCGAAUUCUGCUGU [G3C C39G] | 0.0769
GGCGGCCACAGCAGAAGCGUUCACGUCGCGGCCCCUGUUAGAUUCUGGUGAAUCUGCGAAUUCUGCUGU [G3C C39U] | 0.0426
GGCGGCCACAGCAGAAGCGUUCACGUCACGGCCCCUGUCAGAUUCUGGUGAAUCUGCGAAUUCUGCUGU [G3C G28A] | 0.0239
GGCGGCCACAGCAGAAGCGUUCACGUCCCGGCCCCUGUCAGAUUCUGGUGAAUCUGCGAAUUCUGCUGU [G3C G28C] | 0.0181
GGCGGCCACAGCAGAAGCGUUCACGUCGCGGCCCCUGUCAUAUUCUGGUGAAUCUGCGAAUUCUGCUGU [G3C G41U] | 0.0159
GGCGGCCACAGCAGAAGCGUUCACGUCGCGGCCCCUGUCAAAUUCUGGUGAAUCUGCGAAUUCUGCUGU [G3C G41A] | 0.0418
GGCGGCCAAAGCAGAAGCGUUCACGUCGCGGCCCCUGUCAGAUUCUGGUGAAUCUGCGAAUUCUGCUGU [G3C C9A] | 0.511
GGCGGCCAGAGCAGAAGCGUUCACGUCGCGGCCCCUGUCAGAUUCUGGUGAAUCUGCGAAUUCUGCUGU [G3C C9G] | 0.166
GGCGGCCACAGCAGAAGGGUUCACGUCGCGGCCCCUGUCAGAUUCUGGUGAAUCUGCGAAUUCUGCUGU [G3C C18G] | 0.0441
GGCGGCCACAGCAGAAGUGUUCACGUCGCGGCCCCUGUCAGAUUCUGGUGAAUCUGCGAAUUCUGCUGU [G3C C18U] | 0.0442
GGCGGCCACAGCAGAAGAGUUCACGUCGCGGCCCCUGUCAGAUUCUGGUGAAUCUGCGAAUUCUGCUGU [G3C C18A] | 0.058
GGCUGCCACAGCAGAAGCGUUCACGUCGCGGCCCCUGUCAGAUUCUGGUGAAUCUGCGAAUUCUGCUGU [G3C G4U] | 0.0461
GGCCGCCACAGCAGAAGCGUUCACGUCGCGGCCCCUGUCAGAUUCUGGUGAAUCUGCGAAUUCUGCUGU [G3C G4C] | 0.137
GGCAGCCACAGCAGAAGCGUUCACGUCGCGGCCCCUGUCAGAUUCUGGUGAAUCUGCGAAUUCUGCUGU [G3C G4A] | 0.0691
GGCGGCCACAGCAGAAGCGUUCACGUCGCGGCACCUGUCAGAUUCUGGUGAAUCUGCGAAUUCUGCUGU [G3C C33A] | 0.0485
GGCGGCCACAGCAGAAGCGUUCACGUCGCGGCUCCUGUCAGAUUCUGGUGAAUCUGCGAAUUCUGCUGU [G3C C33U] | 0.0583
GGCGGCCACAGAAGAAGCGUUCACGUCGCGGCCCCUGUCAGAUUCUGGUGAAUCUGCGAAUUCUGCUGU [G3C C12A] | 0.0611
GGCGGCCACAGUAGAAGCGUUCACGUCGCGGCCCCUGUCAGAUUCUGGUGAAUCUGCGAAUUCUGCUGU [G3C C12U] | 0.0982
GGCGGCCACAGCAGAAGCGUUCACGUCGCGGCCCCUGUCAGAUUCUGGUGACUCUGCGAAUUCUGCUGU [G3C A52C] | 0.0723
GGCGGCCACAGCAGAAGCGUUCACGUCGCGGCCCCUGUCAGAUUCUGGUGAUUCUGCGAAUUCUGCUGU [G3C A52U] | 0.075
GGCGGCCACAGCAGAAGCGUUCACGUCGCGGCCCCUGUCAGAUUCUGGUGAGUCUGCGAAUUCUGCUGU [G3C A52G] | 0.0775
